Assay results published in the supplement of paper PMC7877785.
± gives the uncertainty stated by the source.

Assay: self-splicing fitness, log relative to wild type (ln ratio); higher = more splicing; Tetrahymena group I intron in knt gene, E. coli kanamycin selection, DiMSum; sequences stand for … in CUCUCU…GGAGGGAAAAGUUAUCAGGCAUGCACCUGGUAGCUAGUCUUUAAACCAAUAGAUUGCAUCGGUUUAAAAGGCAAGACCGUCAAAUUGCGGGAAAGGGGUCAACAGCCGUUCAGUACCAAGUCUCAGGGGAAACUUUGAGAUGGCCUUGCAAAGGGUAUGGUAAUAAGCUGACGGACAUGGUCCUAACCACGCAGCCAAGUCCUAAGUCAACAGAUCUUCUGUUGAUAUGGAUGCAGUUCACAGACUAAAUGUCGGUCGGGGAAGAUGUAUUCUUCUCAUAAGAUAUAGUCGGACCUCUCCUUAAUGGGAGCUAGCGGAUGAAGUGAUGCAACACUGGAGCCGCUGGGAACUAAUUUGUAUGCGAAAGUAUAUUGAUUAGUUUUGGAGUACUCGUGGUCG
In short: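 A randomised library covering all eight P1ex-region intron nucleotides was built with the intron in the knt kanamycin-resistance gene on pET-22b(+) and held in E. coli BL21(DE3). Cells were grown overnight at 37°C or 30°C on LB agar, with or without 25 μg/mL kanamycin, plus 100 μg/mL carbenicillin, 50 μM IPTG and 0.2% rhamnose, and pooled colonies were amplicon-sequenced on an Illumina HiSeq 2500. DiMSum fitness is the error-weighted combination of wild-type-normalised replicate fold changes, kanamycin versus none.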

Sequence | self-splicing fitness (ln) (30 °C) | self-splicing fitness (ln) (37 °C)
GCUGAGCAAUAUUACGAGCU | -3.66 ± 0.34 | -1.82 ± 0.22
UUUUAGCAAUAUUACGCUCU | -0.0349 ± 0.23 | -0.135 ± 0.18
AGUGAGCAAUAUUACGCGGC | -3.16 ± 0.44 | –
CCUAAGCAAUAUUACGUAAC | -2.97 ± 0.17 | -1.77 ± 0.29
GGCAAGCAAUAUUACGUUUA | -1.29 ± 0.1 | -0.0113 ± 0.11
GCUCAGCAAUAUUACGCAUU | -0.452 ± 0.078 | -0.0385 ± 0.1
CCACAGCAAUAUUACGGAGA | -3.01 ± 0.21 | -1.77 ± 0.17
CGCCAGCAAUAUUACGAACC | -2.23 ± 0.22 | -2.02 ± 0.43
GACCAGCAAUAUUACGUCUA | -1.44 ± 0.085 | -0.724 ± 0.081
CAAUAGCAAUAUUACGGGAG | -2.53 ± 0.085 | -2 ± 0.09
AUGUAGCAAUAUUACGACCC | -0.73 ± 0.26 | -0.517 ± 0.3
CGCUAGCAAUAUUACGGAAG | -1.7 ± 0.16 | 0.348 ± 0.17
UCUUAGCAAUAUUACGUACU | -2.72 ± 0.17 | -1.66 ± 0.18
ACAAAGCAAUAUUACGCAUC | -3.49 ± 0.21 | -1.74 ± 0.2
UCCCAGCAAUAUUACGUCUC | -3.23 ± 0.22 | -2.89 ± 0.25
GGUUAGCAAUAUUACGCGAG | -1.9 ± 0.2 | -0.416 ± 0.13
GGCUAGCAAUAUUACGAGUC | – | -1.08 ± 0.26
CUAAAGCAAUAUUACGGUCC | -4.33 ± 0.47 | -2.2 ± 0.35
UCCAAGCAAUAUUACGCUGC | -2.94 ± 0.21 | -2.61 ± 0.27
CCCUAGCAAUAUUACGUCCU | -4.12 ± 0.37 | -2.06 ± 0.28
UAUGAGCAAUAUUACGUAGC | -3.71 ± 0.3 | -2.5 ± 0.29
GCUUAGCAAUAUUACGUAGA | -0.53 ± 0.076 | 0.396 ± 0.093
UUGGAGCAAUAUUACGACAC | – | -2.36 ± 0.37
ACGCAGCAAUAUUACGUACG | -2.93 ± 0.15 | -0.983 ± 0.13

Sequence | self-splicing fitness (ln) (30 °C) | self-splicing fitness (ln) (37 °C)
AAGUAGCAAUAUUACGCAAU | -2.09 ± 0.14 | -1.46 ± 0.17
UAUAAGCAAUAUUACGGUUG | -1.61 ± 0.11 | -0.603 ± 0.13
GAAAAGCAAUAUUACGGUUC | -3.18 ± 0.11 | -2.88 ± 0.16
AACUAGCAAUAUUACGCGUG | -1.53 ± 0.08 | -0.485 ± 0.09
UUACAGCAAUAUUACGAUCG | -0.32 ± 0.09 | -0.268 ± 0.11
GAAUAGCAAUAUUACGGCUU | 0.268 ± 0.075 | 0.303 ± 0.11
GUUAAGCAAUAUUACGUAUC | -1.79 ± 0.1 | -1.46 ± 0.14
UGAGAGCAAUAUUACGGACA | -1.66 ± 0.18 | -0.674 ± 0.2
GAGCAGCAAUAUUACGUAAG | -2.59 ± 0.17 | -1.45 ± 0.18
CCGCAGCAAUAUUACGGCUA | -3.46 ± 0.23 | -2.61 ± 0.22
GUCAAGCAAUAUUACGCGCC | -4.2 ± 0.3 | -1.95 ± 0.23
UUUCAGCAAUAUUACGCGAG | -1.16 ± 0.14 | 0.301 ± 0.15
UAGCAGCAAUAUUACGGUUA | -0.0652 ± 0.056 | -0.181 ± 0.064
GCGGAGCAAUAUUACGUCGA | -2.59 ± 0.32 | -1.83 ± 0.24
GGAAAGCAAUAUUACGGGUG | -1.91 ± 0.14 | -1.78 ± 0.15
CAUAAGCAAUAUUACGCGCA | -1.4 ± 0.11 | -0.55 ± 0.11
UGAUAGCAAUAUUACGAGUG | -1.14 ± 0.084 | -0.545 ± 0.12
GCUCAGCAAUAUUACGUCUU | -0.48 ± 0.054 | -0.252 ± 0.066
UAUAAGCAAUAUUACGGGUA | -0.177 ± 0.1 | 0.401 ± 0.12
UACGAGCAAUAUUACGGCCG | -0.704 ± 0.13 | -1.01 ± 0.21
CAUGAGCAAUAUUACGGCGG | -0.18 ± 0.094 | -0.278 ± 0.14
CAGCAGCAAUAUUACGACUG | -3.64 ± 0.24 | -2.76 ± 0.33
AAAGAGCAAUAUUACGGCAA | -3.23 ± 0.36 | -1.58 ± 0.19
CCCGAGCAAUAUUACGGUUG | -3.65 ± 0.15 | -1.81 ± 0.11
